Usually Kd stands for the concentration at which binding is half-saturated. Low readings indicate higher affinity, high ones lower affinity.

For four substances, Kd and fold more potent than to CBX7 results are on record in paper doi:10.1101/820647.

Holding throughout (assay): ITC
Background: Isothermal titration calorimetry measures the heat released or taken up as one component is titrated into another.

Assay [1] concerns the target CDY1 chromodomain (aa 2-63) (human) (UniProt Q9Y6F8).
In assay [2] the target is CDYL2 chromodomain (aa 2-62 or 2-64) (human) (UniProt Q8N8U2).
In assay [3] the target is CDYL1b chromodomain (aa 1-66) (human) (UniProt Q9Y232).

Sequence of UniProt Q9Y6F8 (Q9Y6F8 2-63): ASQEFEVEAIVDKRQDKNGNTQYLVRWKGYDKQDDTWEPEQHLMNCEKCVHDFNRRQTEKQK
Sequence of UniProt Q8N8U2 (Q8N8U2 2-64): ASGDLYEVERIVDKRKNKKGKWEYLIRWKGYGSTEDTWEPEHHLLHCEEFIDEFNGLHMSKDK

Substance H3K9me3 peptide displayed a Kd in assay [1] of 0.5 µM.
H3K27me3 peptide (canonical histone H3): the Kd in assay [1] was 93 µM.
Still for that read-out and setting: the value for “H3tK27me3 peptide (testis-specific histone H3t)” was 32 µM.
UNC4850 (peptide): the fold more potent than to CBX7 in assay [2] and in assay [3] was 10 fold in each case.
